Assay results reported in PMC4253524 (The EMBO Journal, 2014).

Target: T1, Flag-tagged RelishΔS29-S45 (Drosophila melanogaster, UniProt Q94527 1-971, ΔS29-S45)
T1 sequence (looked up): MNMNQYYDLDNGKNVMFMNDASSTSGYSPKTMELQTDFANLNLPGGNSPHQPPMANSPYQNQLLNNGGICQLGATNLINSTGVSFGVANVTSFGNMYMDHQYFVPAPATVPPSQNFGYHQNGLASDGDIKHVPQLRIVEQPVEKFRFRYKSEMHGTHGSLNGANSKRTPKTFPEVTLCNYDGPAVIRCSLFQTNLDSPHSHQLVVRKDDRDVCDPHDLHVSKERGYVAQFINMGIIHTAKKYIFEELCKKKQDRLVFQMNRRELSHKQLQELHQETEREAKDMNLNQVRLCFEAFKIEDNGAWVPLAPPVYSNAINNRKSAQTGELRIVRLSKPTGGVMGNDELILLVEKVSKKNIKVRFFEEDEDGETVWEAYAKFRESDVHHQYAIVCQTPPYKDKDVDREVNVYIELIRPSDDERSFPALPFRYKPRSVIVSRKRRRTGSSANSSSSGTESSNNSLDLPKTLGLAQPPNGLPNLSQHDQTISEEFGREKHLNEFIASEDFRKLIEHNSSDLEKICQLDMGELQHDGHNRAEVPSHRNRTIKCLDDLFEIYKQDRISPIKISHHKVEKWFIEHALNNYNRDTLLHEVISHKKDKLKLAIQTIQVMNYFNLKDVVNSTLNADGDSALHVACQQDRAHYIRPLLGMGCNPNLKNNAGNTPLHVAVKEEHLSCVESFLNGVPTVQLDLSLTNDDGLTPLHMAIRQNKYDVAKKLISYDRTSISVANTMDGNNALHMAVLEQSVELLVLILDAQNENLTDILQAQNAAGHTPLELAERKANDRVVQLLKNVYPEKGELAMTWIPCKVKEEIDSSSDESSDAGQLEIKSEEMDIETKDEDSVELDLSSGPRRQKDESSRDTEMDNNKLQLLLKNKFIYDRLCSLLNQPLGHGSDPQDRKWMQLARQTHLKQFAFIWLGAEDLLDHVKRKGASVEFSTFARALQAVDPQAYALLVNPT
Experiment: co-IP

B1: His-tagged Akirin (natural protein, Drosophila melanogaster, UniProt Q9VS59 1-201, looked up)
chain: MACATLKRALDWESMNQRPPKRRRCNPFGQAGSNAGPASPSRDGPSTSAGLPHTPSNRFAKDSTEPSPFSESSLAKMSPDKMAESLCNEIKRLHKRKQLPITSSALERMQDSESSGSEMGPESPRRPDSPQNLMRHGEKALFTFKQVQLICESMIKERENQLRERYESVLTTKLAEQYDAFVKFTYDQIQRRYEAAPSYLS
B1: binds.
